# Test results reported in patent publication US20240117062A1 (published 2024).
# T1: Human BCMA-Avi-His (human, UniProt Q02223 2-54)
# T1 chain: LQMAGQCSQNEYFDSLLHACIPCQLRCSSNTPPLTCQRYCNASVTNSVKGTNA
# T2: Human BCMA DTA-His (human;, UniProt Q02223 1-54; P00588 33-225)
# T2 chain: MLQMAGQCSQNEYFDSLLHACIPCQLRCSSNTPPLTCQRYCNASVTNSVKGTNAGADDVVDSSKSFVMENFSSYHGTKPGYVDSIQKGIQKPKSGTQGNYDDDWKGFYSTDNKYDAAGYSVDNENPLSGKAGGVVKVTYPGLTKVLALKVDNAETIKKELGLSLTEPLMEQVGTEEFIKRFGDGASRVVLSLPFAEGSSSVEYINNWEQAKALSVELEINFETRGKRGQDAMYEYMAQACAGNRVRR
# What was measured:
# Assay in all cases: SPR
# Cyno BCMA DTA-His = Cyno BCMA DTA-His (cynomolgus;, UniProt A0A2K5UD97 1-53; P00588 33-225)
# Human BCMA-Avi-His = target: T1, Human BCMA-Avi-His
# Human BCMA DTA-His = target: T2, Human BCMA DTA-His
# Cyno BCMA-Avi-His = Cyno BCMA-Avi-His (cynomolgus, UniProt A0A2K5UD97 2-53)
# Chain of Cyno BCMA-Avi-His (A0A2K5UD97 entry or part of it): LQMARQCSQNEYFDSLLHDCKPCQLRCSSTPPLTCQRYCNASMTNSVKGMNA
Binder,Kd (Cyno BCMA DTA-His),Kd (Human BCMA-Avi-His),Kd (Human BCMA DTA-His),Kd (Cyno BCMA-Avi-His)
"CA10_parental (antibody, V domains shown) VH: QVQLVESGGGVVQPGRSLRLSCAASGFTFSNFGMHWVRQAPGRGLEWVAVIWSDETNRYYADSVKGRFTVSRDNVKSTVYLQMNSLISEDTAVYYCARDQQYCSSDSCFTWFDPWGQGTLVTVSS VL: QVVVTQESALTTSPGETVTLTCRSSTGTVTPSNYANWVQEKPDHFFTGLIGDNNSRPPGVPARFSASLIGDKAALTITGAQTEDEAMYFCALWFGNQWVFGGGTKVTVL",0.0314 nM,0.0694 nM,0.393 nM,1.43 nM
"CA10 Variant 6 (antibody, V domains shown) VH: QVQLVESGGGVVQPGRSLRLSCAASGFTFSNFGMHWVRQAPGRGLEWVAVIWSDETNRYYADSVKGRFTVSRDNVKSTVYLQMNSLISEDTAVYYCARDQQYCSSDSCFTWFDPWGQGTLVTVSS VL: QTVVTQEPSLTVSPGGTVTLTCASSTGTVTPSNYANWVQQKPGQFPRGLIGDNNSRPPGTPARFSASLLGGKAALTLSGVQPEDEAEYYCALWFGNQWVFGGGTKLTVL",0.0962 nM,0.075 nM,0.0399 nM,1.18 nM
"CA10 Variant 5 (CA10_PE_V5) (antibody, V domains shown) VH: QVQLVESGGGVVQPGRSLRLSCAASGFTFSNFGMHWVRQAPGRGLEWVAVIWSDETNRYYADSVKGRFTVSRDNVKSTVYLQMNSLISEDTAVYYCARDQQYCSSDSCFTWFDPWGQGTLVTVSS VL: QTVVTQEPSLTVSPGGTVTLTCASSTGAVTSGYYANWVQQKPGQAPRALIGDNNIKPSWTPARFSGSLLGGKAALTLSGVQPEDEAEYYCALYYGGQWVFGGGTKLTVL",1.26 nM,,,8.55 nM
"CA10 Variant 2 (antibody, V domains shown) VH: QVQLVESGGGVVQPGRSLRLSCAASGFTFSNFGMHWVRQAPGRGLEWVAVIWSDETNRYYADSVKGRFTVSRDNVKSTVYLQMNSLISEDTAVYYCARDQQYCSSDSCFTWFDPWGQGTLVTVSS VL: QTVVTQEPSLTVSPGGTVTLTCASSTGTVTPSNYANWVQQKPGQAPRGLIGDNNSRPPGTPARFSASLLGGKAALTLSGVQPEDEAEYYCALWFGNQWVFGGGTKLTVL",0.0915 nM,0.0666 nM,0.478 nM,1.89 nM
"CA10 Variant 3 (antibody, V domains shown) VH: QVQLVESGGGVVQPGRSLRLSCAASGFTFSNFGMHWVRQAPGRGLEWVAVIWSDETNRYYADSVKGRFTVSRDNVKSTVYLQMNSLISEDTAVYYCARDQQYCSSDSCFTWFDPWGQGTLVTVSS VL: QTVVTQEPSLTVSPGGTVTLTCASSTGAVTPSNYANWVQQKPGQAPRGLIGDNNIKPPWTPARFSGSLLGGKAALTLSGVQPEDEAEYYCALWYGGQWVFGGGTKLTVL",0.861 nM,0.182 nM,0.247 nM,11.6 nM
"CA10 Variant 1 (antibody, V domains shown) VH: QVQLVESGGGVVQPGRSLRLSCAASGFTFSNFGMHWVRQAPGRGLEWVAVIWSDETNRYYADSVKGRFTVSRDNVKSTVYLQMNSLISEDTAVYYCARDQQYCSSDSCFTWFDPWGQGTLVTVSS VL: QTVVTQEPSLTVSPGGTVTLTCRSSTGTVTPSNYANWVQQKPDHFFTGLIGDNNSRPPGVPARFSASLIGDKAALTLSGVQPEDEAEYYCALWFGNQWVFGGGTKLTVL",0.0418 nM,0.0573 nM,0.247 nM,0.732 nM
"CA10 Variant 4 (antibody, V domains shown) VH: QVQLVESGGGVVQPGRSLRLSCAASGFTFSNFGMHWVRQAPGRGLEWVAVIWSDETNRYYADSVKGRFTVSRDNVKSTVYLQMNSLISEDTAVYYCARDQQYCSSDSCFTWFDPWGQGTLVTVSS VL: QTVVTQEPSLTVSPGGTVTLTCASSTGAVTPGYYANWVQQKPGQAPRGLIGDNNNKPPWTPARFSGSLLGGKAALTLSGVQPEDEAEYYCALYYGGQWVFGGGTKLTVL",13 nM,2.57 nM,3.07 nM,64.2 nM
